{"source": "paper PMC9962951", "about": "“Olive Polyphenol Oxidase Gene Family” (International Journal of Molecular Sciences, 2023)", "proteins": {"B1": {"name": "OePPO3 (Olea europaea subsp. europaea) (protein)", "chain": "APISAPDVTTCGPADLPQGAAPTNCCPPPTGEILDFKFPPPPTTMRVRPAAHLADEAYIAKFNRAVELMRALPDDDPRSFRQQANVHCAYCDGAYDQVGFPNLELQVHNSWLFFPFHRYYLYFFERILGNLIDDPTFAMPFWNYDAPGGMHLPAIYANQNSSLYDPLRDSAHQPPAFIDLNFSGSDANTGEAQQTSRNLTIMYRQMVSNSKTPRLFFGSPYRRGEDPNPGSGSIENIPHGPVHVWTGDRTQPNFENMGNFYSAGRDPIFFAHHSNIDRMWTLWKTLGGRRQDITDPDFLDASFVFYDENAKMVRVKVRDCLDHTKLGYVYQDVEVPWLRSRPKPRISSVVRKLKKLVRANAADIPSPKDIFPAKLDQVIKVMVKRPKKKRSKKEKDELEEILIIQGIELERDVYAKFDVFINDEDDEESTPENTEFAGSFVNVPHKHKNDKKIKTNLRLSITDILEDLDAEDDQHVLVTLVPKNFGDAITVHGIKIELDD", "notes": "GST tag cut off with PreScission (pGEX6P.1); E. coli BL21(DE3); about 54 kDa"}}, "key": {"purified protein [1]": {"substrate": "CC(C)(C)c1ccc(O)c(O)c1", "assay": "purified protein", "type": "biochemical, Olea europaea", "details": "diphenolase, 50 mM sodium phosphate pH 6.8, 1 mM SDS, 25 °C, substrate range 0.2–7 mM"}, "purified protein [2]": {"substrate": "NCCc1ccc(O)cc1", "assay": "purified protein", "type": "biochemical, Olea europaea", "details": "monophenolase, pH 6.8, 25 °C, substrate range 0.2–7 mM"}}, "data": [{"protein": "B1", "values": [{"measurement": "Km", "setting": "purified protein [1]", "result": 800, "unit": "µM"}, {"measurement": "Vmax", "setting": "purified protein [1]", "result": 130, "unit": "µmol/min/mg"}, {"measurement": "Km", "setting": "purified protein [2]", "result": 700, "unit": "µM"}, {"measurement": "Vmax", "setting": "purified protein [2]", "result": 2.7, "unit": "µmol/min/mg"}]}]}
